These results are taken from patent US10005846B2, “Anti-transglutaminase 2 antibodies” (MEDICAL RESEARCH COUNCIL TECHNOLOGY, priority 2012, dated 2018).

In test [1] the target is T1, HepG2 cell lysate proteins (Homo sapiens, UniProt P21980).
T1 construct: endogenous in cells; host or cells: HepG2
T1 sequence (P21980 1-687): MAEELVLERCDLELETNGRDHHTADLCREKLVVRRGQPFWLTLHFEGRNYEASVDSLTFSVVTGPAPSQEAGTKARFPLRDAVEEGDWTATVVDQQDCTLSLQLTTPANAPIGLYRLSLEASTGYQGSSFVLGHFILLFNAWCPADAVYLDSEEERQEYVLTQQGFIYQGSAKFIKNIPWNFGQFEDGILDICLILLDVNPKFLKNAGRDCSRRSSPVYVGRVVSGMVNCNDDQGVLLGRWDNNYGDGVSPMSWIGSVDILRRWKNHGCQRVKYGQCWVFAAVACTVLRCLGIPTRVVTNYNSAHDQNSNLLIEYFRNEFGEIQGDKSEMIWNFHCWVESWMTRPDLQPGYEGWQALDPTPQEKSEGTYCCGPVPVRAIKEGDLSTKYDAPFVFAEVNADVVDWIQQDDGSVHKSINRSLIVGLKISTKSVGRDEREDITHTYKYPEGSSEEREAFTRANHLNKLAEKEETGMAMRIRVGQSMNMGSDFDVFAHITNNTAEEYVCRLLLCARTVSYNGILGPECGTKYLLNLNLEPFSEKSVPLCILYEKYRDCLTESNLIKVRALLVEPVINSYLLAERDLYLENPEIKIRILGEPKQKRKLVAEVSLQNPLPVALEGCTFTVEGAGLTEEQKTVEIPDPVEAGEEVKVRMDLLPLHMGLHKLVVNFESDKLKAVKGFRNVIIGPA
Nature of the test: Western blot of HepG2 lysate immunoprobed with AB1. The class given is binding. The following applies: 25 μg of lysate. Here is the method: B: HepG2 cells were exposed to increasing glucose concentrations for 96 hours to up regulate TG2 expression. Cells were harvested, lysed and 25 ug of lysate fractionated by SDS-PAGE, western blotted and then immunoprobed with a 1 ng/ml solution of AB1 IgG using a chemiluminesant end point.
Confirmation of TG2 core protein synthesis as well as TG2 and TG2 core reactivity levels following immunisation were all measured by western blotting. Recombinant proteins (10 to 80 ng) were loaded on a 10% (w/v) polyacrylamide denaturing or non-denaturing gel as required and transferred onto PVDF membranes (Transblot SD, Biorad, UK) for one hour at 100 V. Membranes were blocked overnight at 4° C. with 3% (w/v) BSA in TBS/0.1% (v/v) Tween 20. The membranes were then washed and probed with monoclonal mouse anti-transglutaminase antibodies in TBS/Tween containing 1% BSA. For proof of recombinant TG2 core protein and as a positive control for antibody screening the commercial antibody Cub7402 (neomarkers) was used at a 1:1000 dilution. Binding of primary antibody was detected with the anti-mouse gamma-chain-HRP linked secondary antibody (Sigma, Poole, UK). Bands were visualised using ECL chemiluminescent detection system (Amersham, UK).
(In general: A western blot detects proteins with antibodies after separation by electrophoresis.)

For a further test, the target named is T2, human TG2 (Homo sapiens, UniProt P21980).
T2 sequence (P21980 1-687): T1 sequence (P21980 1-687)
Nature of the test: 3H-putrescine incorporation TG activity assay with recombinant human TG2. Format: biochemical. Here is the method: To determine an IC50 value for each antibody against human, rat and mouse the ^3H Putrescine assay was used. 100 ng of human TG2 or 25 ng of mouse and rat TG2 was used to generate a reaction where approximately 3000 cpm of Putrescine were incorporated per hour in 10 ul of the reaction mixture. Serial dilutions of each antibody were then applied starting from adding 500 ng (5 ug/ml final concentration) to the reaction mixture and incubated with the TG2 for 20 minutes prior to activating the reaction. IC50 values were calculated by determining the concentration at which the enzymatic rate of reaction was reduced by 50% using an appropriate curve fit in graphpad prism. Values are expressed as the amount of IgG in […] in the reaction that would inhibit 1 ng of TG2.
TG activity is measured by the Ca^2+ dependent incorporation of ^3H-putrescine into N′,N′-dimethylcasein. Recombinant human TG2 (100 ng) was pre-incubated for twenty minutes at room temperature with the test sample (conditioned medium or purified IgG) before starting the reaction. Twenty-five μl of reaction mix (5 μl of 25 mM CaCl2, 5 μl of 40 mM dithiothreitol, 5 μl ^3H-putrescine mix, and 10 μl 25 mg/ml of N,N′ dimethylcasein (replace 25 mM CaCl2 with 100 mM EDTA for a non-enzymatic control) was added to start the reaction and the samples incubated at 37° C. for up to 1 hour. Aliquots of 10 μl were spotted onto a strip of 3 MM Whatman filter paper and plunged immediately into ice-cold 10% trichloroacetic acid (TCA) in order to precipitate the cross-linked proteins typically at time 0, 10, 30 and 60 minutes into the reaction. After three extensive washes in ice-cold 5% TCA followed by 3 rinses with ice-cold 95% ethanol, the air dried filter was counted in 2 ml of scintillation fluid (Ultima Gold Packard, Perkin Elmer). The rate of reaction was calculated. 1 TG unit is equivalent to the incorporation of 1 nmol of putrescine per hour at 37° C.

The target in test [2] is T3, extracellular TG2 in human HK-2 cells (Homo sapiens, UniProt P21980).
T3 construct: endogenous in cells; host or cells: HK-2 (kidney proximal tubular epithelium)
T3 sequence (P21980 1-687): T1 sequence (P21980 1-687)
Nature of the test: Extracellular TG activity in HK-2 cells, biotin cadaverine incorporation into fibronectin (Example 1). The class given is cell-based. Here is the method: HK2 cells were plated onto fibronectin and incubated for 2 hours in the presence of 0.1M biotin cadaverine with either 4 ng/μl of human anti-TG2 antibody (AB1) (part A), 4 ng/μl of human anti-TG2 antibody (DC1) (part B) or 400 μM of the site-specific pan TG inhibitor 1,3-Dimethyl-2-[(2-oxo-propyl)thio]imidazolium chloride. […] Changes in optical density were measured at 450 nm in a 96 well plate reader. Data represents mean OD at 450 nm corrected to 1 mg of cell protein. n=6 wells per experimental group.
Extracellular TG activity was measured by modified cell ELISA. HK-2 epithelial cells were harvested using 0.1M EDTA or 0.25% trypsin/EDTA and plated at a density of 8×10^4 cells/well in serum free medium onto a 96 well plate that had been coated overnight with 100 μl/well of fibronectin (5 μg/ml in 50 mM Tris-HCl pH 7.4) (Sigma, Poole UK). Cells were allowed to attach for 2.5 h at 37° C. in the presence of the 0.1 mM biotin cadaverine [N-(5 amino pentyl biotinamide) trifluoroacetic acid] (Molecular Probes, Eugene Oreg., USA). Plates were washed twice with 3 mM EDTA/PBS and cells removed with 0.1% (w/v) deoxycholate in 5 mM EDTA/PBS. The supernatant was collected and used for protein determination. […] The reaction was stopped with 50 μl 2.5 M H2SO4 and the absorbance read at 450 nm.

Test [3] has as its target T4, TG2 activity in HepG2 cell homogenate (Homo sapiens, UniProt P21980).
T4 construct: endogenous in cells; host or cells: HepG2
T4 sequence (P21980 1-687): T1 sequence (P21980 1-687)
Nature of the test: 3H putrescine incorporation TG activity assay in HepG2 cell homogenate. Format: biochemical. As to the method:
A: Hep2G cells were lysed and 45 ug of protein mixed with 750 ng of IgG from AB1, DH2, DD9, BB7, DC1 and EH6 for 20 minutes. This was subsequently assayed using the ^3H Putrescine incorporation TG activity assay with sampling over 1 hour. The rate of reaction was calculated and expressed as a percentage of the same lysate incubated with a random antibody (MAB002). Data represents the mean percentage inhibition ±SEM from 2 separate experiments done in duplicate. *p<0.05
HepG2 cells were kindly supplied by Richard Ross (University of Sheffield). Cells were routinely grown at 37° C. in a 95% humidified atmosphere of 5% CO2 in DMEM/4.5 g per liter glucose supplemented with 10% foetal calf serum (FCS), 100 IU penicillin and 100 μg/ml streptomycin, 2 mM I-glutamine (all GIBCO). Two million cells were seeded on a 10 cm dishes and grown for 48 hours. Cells were lysed in 250 μl of STE buffer (0.32M sucrose, 5 mM Tris, 1 mM EDTA containing protease inhibitors Phenylmethylsulphonyl fluoride (1 mM), benzamidine (5 mM), and leupeptin (10 μg/ml) and sonicated on ice to produce a cell lysate usable in TG2 activity assay.
The same protocol was used to assess TG inhibition in cell lysates by replacing the 25 μl of recombinant protein with 25 μl of cell lysate.

B1: AB1: murine monoclonal anti-TG2 IgG, Group 1 (epitope amino acids 304 to 326); VH and VK in FIGS. 7 and 18 (antibody, V domains shown)
VH: EVQLVESGGGLVKPGGSLKLSCAASGFTLSSSAMSWVRQTPDRRLEWVATISVGGGKTYYPDSVKGRFTISRDNAKNTLYLQMNSLRSEDTAMYYCAKLISLYWGQGTTLTVSS
VL: DIKMTQSPSSMYASLGERVTITCKASQDINSYLTWFQQKPGKSPKTLIYRTNRLFDGVPSRFSGSGSGQDFFLTISSLEYEDMGIYYCLQYDDFPYTFGGGTKLEIK
For the molecule B1, the “off target association in HepG2 lysate” value in test [1] is given as “no off target association”. For the same molecule, the “IC50 against human TG2” value with human TG2 (amount of IgG in the reaction that would inhibit 1 ng of TG2, 100 ng human TG2) was 0.011 µg/mL. The “hybridoma supernatant ability to inhibit TG2 activity” value with human TG2 (initial screen of conditioned medium, 100 ng of TG2) was “able to inhibit TG2 activity”. The “inhibition of extracellular TG activity” value in test [2] (4 ng/ul in the culture media) stood at 60%. Besides, in test [2] (applied to the culture media), the “inhibition of extracellular TG2 in human HK-2 cells (in words)” value is listed as “able to inhibit TG2 successfully”. Also, the “inhibition of TG2 in human Hep2G cells (in words)” value in test [3] is listed as “able to inhibit TG2 successfully”. Also, the “inhibition of TG2 activity in HepG2 homogenate” value in test [3] (0.5 μg of antibody, 45 ug lysate protein) came out at 70%.
